Assay [1] concerns the target #231: CAR with VL-L1-VH scFv, Human 3rd-generation. In words: flow cytometry on CAR-T cells; PE-labeled secondary antibody; PE-positive cells / total cells. Background: A flow cytometer gives signals particle by particle.
Another assay concerns the target #264: VH-L1-VL CAR-T. The description is as above.
A further assay addresses #371: VL-L2-VH CAR-T. The description is as above.
Another assay addresses #628: VH-L2-VL CAR-T. The description is as above.
The target of the next assay is #651: VH-L2-VL CAR-T. The description is as above.
Chain of #651: VH-L2-VL CAR-T (main, as listed by the source): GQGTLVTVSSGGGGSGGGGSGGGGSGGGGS
Assay [2] has as its target S#017: CAR with VH-L2-VL scFv, Human 3rd-generation_hIL7_hCCL19_HSVtk. Described as above.
The target in another assay is S#027: VH-L1-VL CAR-T. The assay is described as above.
Assay [3] deals with S#031: CAR with VH-L1-VL scFv, Human 3rd-generation_hIL7_hCCL19_HSVtk. Described as above.
A further assay concerns the target S#050: VH-L1-VL CAR-T. Described as above.
Another assay has as its target S#066: VL-L2-VH CAR-T. The assay is described as above.
In assay [4] the target is S#067: CAR with VL-L1-VH scFv, Human 2nd-generation (4-1BB)_hIL7_hCCL19_HSVtk. The assay is described as above.
The target of a further assay is S#074: VL-L2-VH CAR-T. The description is as above.
Chain of S#074: VL-L2-VH CAR-T (main, as listed by the source): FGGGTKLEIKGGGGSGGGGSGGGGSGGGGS
Assay [5] has as its target S#075: CAR with VL-L1-VH scFv, Human 2nd-generation (4-1BB)_hIL7_hCCL19_HSVtk. The description is as above.
The next assay has as its target S#076: VH-L2-VL CAR-T. The assay is described as above.
The target in another assay is S#084: VL-L2-VH CAR-T. The description is as above.
For a further assay, the target named is S#085: VL-L1-VH CAR-T. Described as above.
Another assay addresses S#097: VL-L2-VH CAR-T. The assay is described as above.
For another assay, the target named is S#104: VL-L1-VH CAR-T. The assay is described as above.
Assay [6] concerns the target #231: CAR with VL-L1-VH scFv, Human 3rd-generation. The experiment in a line: subclone supernatant on HEK293T cells transiently expressing the scFv; % positive cells.

Consider four molecules from patent US20240400718A1.

Chain of #231: CAR with VL-L1-VH scFv, Human 3rd-generation (main, as listed by the source): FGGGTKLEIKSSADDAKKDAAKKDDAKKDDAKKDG
Chain of S#097: VL-L2-VH CAR-T (main, as listed by the source): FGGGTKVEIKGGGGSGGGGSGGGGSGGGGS

B1: 3A4-A10-7 (antibody, V domains shown)
VH: QVQLQQSGAALVKPGASVKMSCKASGYTFTDCWVSWVKQSHGKSLEWIGEIHPNSGTTNFNEKFKGKATLTVDKSTSTAYMELSRLTSEDSAIYYCTRAYGGYPFDYWGQGVMVTVSS
VL: ADLVLTQPKSVSTSLESTVKLSCKLNSGNIGRYYMHWYQQHEGRSPTNMIYRDDKRPDGVPDRFSGSIDSSSNSAFLTINNVQTEDEAIYFCHSYDSSINIFGGGTKLTVLG
With B1, the Reactivity (%) in assay [1] was 23.9%; with #264: VH-L1-VL CAR-T, 36.7%; with #371: VL-L2-VH CAR-T, 0.2%; with #628: VH-L2-VL CAR-T, 0.1%; with #651: VH-L2-VL CAR-T, 0.2%; in [2], 0%. Besides, the Reactivity (%) was determined as 45.7% in the assay with S#027: VH-L1-VL CAR-T; 45.3% in [3]; 18.5% with S#050: VH-L1-VL CAR-T; 0.2% with S#066: VL-L2-VH CAR-T; 22.3% in [4]; 0.2% with S#074: VL-L2-VH CAR-T. For the same molecule, the Reactivity (%) came to 12.3% in [5]; 0.2% in the assay with S#076: VH-L2-VL CAR-T; 0.1% in the assay with S#084: VL-L2-VH CAR-T; 2.2% in the assay with S#085: VL-L1-VH CAR-T; 0.1% with S#097: VL-L2-VH CAR-T; 5.2% in the assay with S#104: VL-L1-VH CAR-T.

B2: 3E7-C1 (antibody, V domains shown)
VH: QVQMKESGPGLVQPSETLSLTCTVSGFSLTSYGVSWVRQPSGKGPEWMGRLWNDGDTAYNSALKSRLSISRDTSKNQVFLKMNSLQTDDTGTYYCTTMNGYKDYWGQGVMVTVSS
VL: TSYELIQPPSASVTLGNTVSLTCVGDELPKRYAYWYQQKPDQSIVRVIYEDSKRPSGISDRFSGSSSGTTATLTIRDAQAEDEADYYCHSTYSDDKLRIFGGGTKLTVLG
Turning to B2, the Positive (%) in [6] is 24.5%. The Reactivity (%) in [1] is 69.6%; with #264: VH-L1-VL CAR-T, 0%; with #371: VL-L2-VH CAR-T, 0%; with #628: VH-L2-VL CAR-T it was 0%; with #651: VH-L2-VL CAR-T, 0.1%; in assay [2] it was 0%. In addition, the Reactivity (%) in the assay with S#027: VH-L1-VL CAR-T was determined as 0%; in assay [3] it was 2.2%; with S#050: VH-L1-VL CAR-T, 0.1%; with S#066: VL-L2-VH CAR-T, 0.1%; in assay [4] it was 41%; in the assay with S#074: VL-L2-VH CAR-T, 0.1%. For the same molecule, the Reactivity (%) is 25.9% in [5]; 0.1% with S#076: VH-L2-VL CAR-T; 0% with S#084: VL-L2-VH CAR-T; 41.4% in the assay with S#085: VL-L1-VH CAR-T; 0% with S#097: VL-L2-VH CAR-T; 21.5% with S#104: VL-L1-VH CAR-T.

B3: 4B9-B11 (antibody, V domains shown)
VH: QMQLKESGPGLVQPSETLSLTCTVSGFSLTSYSVSWVRQPSGKGPEWMGRMYYDGDTAYNSALKSRLSISRDTSKNQVFLKMNSLQTDDTGTYYCTRSIGAEDYWGQGVMVTVSS
VL: TSYELIQPPSASVTLGNTVSLTCVGDELPKRYAYWYQQKPDQSIVRVIYEDSKRPSGISDRFSGSSSGTTATLTIRDAQNEDEADYYCHSTYSDDKLRIFGGGTKLTVLG
B3: in assay [6], the Positive (%) amounted to 60%. Besides, the Reactivity (%) in assay [1] is 74.6%; in the assay with #264: VH-L1-VL CAR-T, 0%; with #371: VL-L2-VH CAR-T it was 0.1%; with #628: VH-L2-VL CAR-T, 0.2%; with #651: VH-L2-VL CAR-T, 0.2%; in [2], 0%. Also, the Reactivity (%) with S#027: VH-L1-VL CAR-T was 1%; in assay [3] it was 9.7%; in the assay with S#050: VH-L1-VL CAR-T it was 1.1%; with S#066: VL-L2-VH CAR-T, 0.1%; in assay [4], 41.5%; with S#074: VL-L2-VH CAR-T, 1.4%. Also, the Reactivity (%) is 35.7% in assay [5]; 0.2% with S#076: VH-L2-VL CAR-T; 0.1% with S#084: VL-L2-VH CAR-T; 49.6% with S#085: VL-L1-VH CAR-T; 0.1% with S#097: VL-L2-VH CAR-T; 29.1% in the assay with S#104: VL-L1-VH CAR-T.

B4: 2D12-B12 (antibody, V domains shown)
VH: EVKLVESGGGLVQPGRSLKLSCAASGFNFNDYWMGWVRQAPGKGLEWIGEIKKDSSIINYIPSLKDKFTISRDNAQNTLYLQMSKLGSEDTAIYYCARGVEYYGYHYWGQGTLVTVSS
VL: DIVMTQSPSSLAVSAGETVTINCKSSQSLLYSGNQKNYLAWYQQKPGQSPKLLIYWASTRHSGVPARFIGSGSGSDFTLTISSVQAEDLAIYCCQQYYDIPYTFGAGTKLELK
As for B4, the Reactivity (%) came out at 67.4% in assay [1]; 11.1% with #264: VH-L1-VL CAR-T; 0.2% with #371: VL-L2-VH CAR-T; 0.2% in the assay with #628: VH-L2-VL CAR-T; 0.4% with #651: VH-L2-VL CAR-T; 0% in [2]. For the same molecule, the Reactivity (%) with S#027: VH-L1-VL CAR-T worked out at 28.4%; in assay [3], 64.6%; with S#050: VH-L1-VL CAR-T, 14.5%; with S#066: VL-L2-VH CAR-T it was 0.9%; in [4] it was 34.9%; in the assay with S#074: VL-L2-VH CAR-T, 0.8%. For the same molecule, the Reactivity (%) in assay [5] came to 15%; with S#076: VH-L2-VL CAR-T, 0.2%; in the assay with S#084: VL-L2-VH CAR-T it was 0.3%; with S#085: VL-L1-VH CAR-T it was 0.8%; with S#097: VL-L2-VH CAR-T, 0.3%; with S#104: VL-L1-VH CAR-T, 13.4%.
